This is an account of results in publication doi:10.1101/393223, “Structures of the substrate-engaged 26S proteasome reveal the mechanisms for ATP hydrolysis-driven translocation” (bioRxiv, 2018).

The experiment concerns the target T1, Rpn11 (3XFLAG-tagged, in the 26S proteasome) (S. cerevisiae, UniProt P43588 1-306).
T1 construct: Rpn11, Zn2+-dependent deubiquitinase of the lid, S. cerevisiae; strain YYS40 RPN11::RPN11-3XFLAG; the catalytic Zn2+ is not visible in the structure; also called Rpn11 deubiquitinase; source: purified from S. cerevisiae strain YYS40 as part of the 26S proteasome (anti-FLAG, SEC)
The experiment in a line: cryo-EM structure; 26S proteasome (20 μM; 20 mM HEPES pH 7.6, 25 mM NaCl, 25 mM KCl, 10 mM MgCl2, 1 mM TCEP, 5 mM ATP, 0.05% NP-40, ATP regeneration system, 6 mM ortho-phenanthroline) mixed with an equal volume of 50 μM ubiquitinated model substrate and vitrified at once; single-particle analysis gave four substrate-engaged states (1D*, 5D, 5T, 4D). To be noted: both partners purified.

B1: ubiquitin (S. cerevisiae), the most proximal, substrate-attached moiety of the poly-ubiquitin chain (natural protein)
chain: not shown
modifications: C-terminus in an isopeptide bond with the substrate lysine; part of a K63-linked ubiquitin chain
notes: ubiquitin, S. cerevisiae; cut product of the ubiquitin precursors; Modeled at the Rpn11 active site in the 4D state with PDB 5U4P as template; also called ubiquitin moiety
On to B1, for which the binding result is “binds”.
